In article PMC5023729:

Legend:
[1] = molecular target: F380L/F382L double mutant G3BP1 (human) (UniProt Q13283)
[2] = molecular target: FLAG-G3BP1 (human, wild type) (human) (UniProt Q13283)

Substance | percentage of cells with SOD1 inclusions in which G3BP1 co-localizes (EGFP-tagged SOD1 and mCherry-tagged G3BP1 in G3BP1-null 293T cells) [1] [%] | percentage of cells with SOD1 inclusions in which G3BP1 co-localizes (EGFP-tagged SOD1 and mCherry-tagged G3BP1 in G3BP1-null 293T cells) [2] [%]
A4V mutant SOD1-3xHA (natural protein) | 36.1 | 86.6
A4V/W32S double mutant SOD1 (natural protein) | 14.7 | 49.1
